In the supplement of paper PMC9170038:

Test system: MS2 coat protein
Assay: apparent KD of MS2 coat protein; designed switch direction (-1 OFF switch, 1 ON switch): -1; higher = weaker reporter binding
How it was run: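 SNAP-549-labelled MS2 coat protein was titrated, doubling from 0.7 or 1.5 nM to 3 µM, over designed RNA switches transcribed on Illumina chips by stalled E. coli RNA polymerase. Runs were done without input, with 200 uM small-molecule ligand, or with an oligonucleotide input. Apparent KD is the per-design median over clusters of curve-fitted normalised fluorescence.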

[1] = input ligand: microRNA oligo, concentration not stated
[2] = Eterna round: R95, input ligand: FMN 200 uM
[3] = Eterna round: R95, input ligand: microRNA oligo, concentration not stated
[4] = Eterna round: R95, input ligand: none

Sequence	apparent KD of MS2 coat protein (input ligand: FMN 200 uM)	apparent KD of MS2 coat protein (input ligand: none)	apparent KD of MS2 coat protein [3]	other results
CUGUUUUUCGCAGGAUAUGCUCCUCCAUUAUUUGCAGAAGGGCGUUGAACAUGAGGAUCACCCAUGUAUGGAAAUGACUAUUGC [JR_ExcNG1_Sub068] (Eterna round: R96, puzzle: Exclusion NG 1)	22.1 nM	18.2 nM	–	apparent KD of MS2 coat protein [1]: 14.9 nM
CUUAAGGCAGGAUAUGCUGUUUGUGACAUGAGGAUCACCCAUGUGAUGCAGUUUGGGUGUGCAGAAGGGCCUGAGU [JR_E5_Sub032] (puzzle: Exclusion 5)	–	–	71.5 nM	apparent KD of MS2 coat protein [2]: 96.4 nM; apparent KD of MS2 coat protein [4]: 131 nM
CUUAGACAUGAGGAUCACCCAUGUCAGGAUAUCGUCUACCUGUGGAAACACAGGUAGACGAGAAGGGAUGUGUU [SS1 Omei 3] (puzzle: Exclusion 1)	–	–	37.8 nM	–
CUUAGACAUGAGGAUCACCCAUGUGAGGAUAUGAUGCAGCAGUGGUCUACGCUGUGCAUCAGAAGGCACAUGUG (puzzle: Exclusion 1)	–	–	62.4 nM	–
CUUAGCCUAAAAUCACGCAAGCUUUUUGCUUGUCUAAAGACAUGAGGAUCACCCAUGUCCGGGCUGAACUUAUGGAA [Atqusoen] (puzzle: Sensor v3, turn-off variant 2)	–	–	18.1 nM	apparent KD of MS2 coat protein [2]: 17.7 nM; apparent KD of MS2 coat protein [4]: 16 nM
CUUAUGUGAGGAUAUCAGUAGUAAUACAAUAGUAUUACUACUGAGAAGGCACAUGAGGAUCACCCAUGUUCUUC [Exclusion 4 - Mod Omei Ex4 344 mod v.2] (puzzle: Exclusion 4)	–	–	103 nM	–
CUUCACCCACCAAAGCUCACCCACAUACCUGCUCUGGUGACAUGAGGAUCACCCAUGUUUUUUGCCCGUCUUAUCUU [Leso] (puzzle: Sensor v3, turn-off variant 2)	–	–	163 nM	apparent KD of MS2 coat protein [2]: 40.7 nM; apparent KD of MS2 coat protein [4]: 41.4 nM
CUUCGGCGAGGAUAUUACGAGAACGACAUGAGGAUCACCCAUGUGAUCGAGGUUGCCUCGUAAGAAGGCGCAUAUA [Reederedle] (Eterna round: R97, puzzle: Exclusion 5)	1050 nM	244 nM	–	–
CUUCUCAGAGGAUAUCACGGUAAUAACAUGAGGAUCACCCAUGUGGAAUUCGUGUCCCUGUGAGAAGGCUGAGAAG [Bezavere] (puzzle: Exclusion 5)	–	–	12.2 nM	apparent KD of MS2 coat protein [2]: 33.2 nM; apparent KD of MS2 coat protein [4]: 16 nM
CUUCUGUCAGGAUAUGCGAAUCACCGCUGGGUCAGCGGCGAGCAGAAGGGACAUGAGGAUCACCCAUGUAAAAU [Quriveer] (Eterna round: R97, puzzle: Exclusion 4)	211 nM	51.3 nM	–	–
CUUGAGCAGGUAGGAUAUACGAAGUGUCGGCGAGUAGAAGGACCUGCGAUCCACUUGAGGAUCACCCAAGUUCGCAGGAGAACA [Mutated MS2 EX1.1] (Eterna round: R96, puzzle: Exclusion NG 1)	241 nM	61.3 nM	–	apparent KD of MS2 coat protein [1]: 32.4 nM
CUUGCGGACAAAGGAUAUUGCGGUGACCGGCUCGGCGUACCGAGCCUACAUGAGGAUCACCCAUGUAAGAAGGUUGACGCUGGU [JL ViennaUCT Qudice mod 4] (Eterna round: R96, puzzle: Exclusion NG 2)	106 nM	27.6 nM	–	apparent KD of MS2 coat protein [1]: 20 nM
CUUGUACAUGAGGAUCACCCAUGUUAGGAUAUCUCGCCGUCGGCUUGCCGACGGUAUUAGAGAAGGGACUAGGG [JL Tixe mod 5] (puzzle: Exclusion 1)	–	–	38.8 nM	–
CUUGUGUAAGGAUAUAUGAGUCACGGAAAUAAACCGUGAAGAUAGAAGGUACAUGAGGAUCACCCAUGUAAAAC [Mod of Anonveat 5 - Jieux - Exclusion 4] (Eterna round: R97, puzzle: Exclusion 4)	224 nM	35.2 nM	–	–
CUUGUGUGAGGAUAUGAAUUACCUGGUCAAACAGGCUCCUGUCAGAAGGCACAUGAGGAUCACCCAUGUGGGCA [Dibilela] (Eterna round: R97, puzzle: Exclusion 4)	121 nM	310 nM	–	–
CUUGUGUUAGGAUAUGUUAAGCCACCAACCAGUGGAUCAGGACAGAAGGAACAUGAGGAUCACCCAUGUAAAAG [Inedar] (Eterna round: R97, puzzle: Exclusion 4)	25.3 nM	67.4 nM	–	–
CUUGUUUAAGUGAGGAUAUACUGUUAGUAAUGAUUGUAGAAGGUACAUGAGGAUCACCCAUGUUUAUUUAUAUU [JR_BME4_Sub042] (puzzle: Brourd's mod of Exclusion 4)	–	–	16.4 nM	–
CUUGUUUAUGUAGGAUAUGCCUGGCGUGCCUUUGCAGAAGGACAUGAGGAUCACCCAUGUAACAUGAGGCUCACCCAUGUCGCG [salish99_ExNG1_r04_105] (Eterna round: R96, puzzle: Exclusion NG 1)	293 nM	327 nM	–	apparent KD of MS2 coat protein [1]: 213 nM
CUUUAGCAAGCGAGAUCCCACAUGAGGAUCACCCAUGUGCAUCCAGAAUUACUGGGUGCAAAAGCUCGUCUUAUAUC [mod-Eli newdang-1b] (Eterna round: R97, puzzle: Sensor, turn-off variant 1)	58.4 nM	62.6 nM	–	–
CUUUGCACGCUGCGGUCCUACAUGAGGAUCACCCAUGUGGUCUGGUGGCGUGGGUCGCCGGACUUGGCUCGUCUUGU [salish99_S_TOV1_R5_041] (Eterna round: R97, puzzle: Sensor, turn-off variant 1)	18.2 nM	18.8 nM	–	–
CUUUUGUCAGGAUAUCGUGCAUACAACGAAAGUUCUAUGUGCGAGAAGGGACAUGAGGAUCACCCAUGUUACGG [Omei Ex4 A6] (Eterna round: R97, puzzle: Exclusion 4)	175 nM	677 nM	–	–
CUUUUGUGAGGAUAUCAGUAGUAAAAAAAUAAAAUUACUUCUGAGAAGGCACAUGAGGAUCACCCAUGUUCCUC [salish99_ex4_r3_027] (puzzle: Exclusion 4)	–	–	37.4 nM	–
CUUUUGUGAGGAUAUCAGUAGUAAAAUAAUAAAUAUACUACUGAGAAGGCACAUGAGGAUCACCCAUGUUCCUC [Mat - Exclusion 4 - Mod of Salish - D74] (puzzle: Exclusion 4)	–	–	35 nM	–
CUUUUGUGAGGAUAUCAGUAGUAGAACAAUAGUACUACUACUGAGAAGGCACAUGAGGAUCACCCAUGUACCUC [Fiskers Ex 4 Super stable 44 mod 3] (puzzle: Exclusion 4)	–	–	18.8 nM	–
CUUUUGUGAGGAUAUCAGUAGUAUAAAAAUAAAAUUACUACUGAGAAGGCACAUGAGGAUCACCCAUGUUCCUC [salish99_ex4_r3_017] (puzzle: Exclusion 4)	–	–	37.4 nM	–
CUUUUGUGAGGAUAUUAGUAGUUUAUAAUUGGUGUUAUUGCUGAGAAGGCACAUGAGGAUCACCCAUGUACAAC [JR_Ex4_Sub033] (Eterna round: R97, puzzle: Exclusion 4)	97.9 nM	37 nM	–	–
CUUUUGUGAGGAUAUUUGUAGUAAAUAAAUAAAAUUACUACUGAGAAGGCACAUGAGGAUCACCCAUGUUCCUC [salish99_ex4_r3_042] (Eterna round: R96, puzzle: Exclusion 4)	200 nM	28.6 nM	–	apparent KD of MS2 coat protein [1]: 24.4 nM
